Assay results as given in publication PMC5994540.

B1: GluN3A subunit: GluN3A-2/4N→Q (protein)
parent chain: MRRLSLWWLLSRVCLLLPPPCALVLAGVPSSSSHPQPCQILKRIGHAVRVGAVHLQPWTTAPRAASRAQEGGRAGAQRDDPESGTWRPPAPSQGARWLGSALHGRGPPGSRKLGEGAGAETLWPRDALLFAVENLNRVEGLLPYNLSLEVVMAIEAGLGDLPLMPFSSPSSPWSSDPFSFLQSVCHTVVVQGVSALLAFPQSQGEMMELDLVSSVLHIPVLSIVRHEFPRESQNPLHLQLSLENSLSSDADVTVSILTMNNWYNFSLLLCQEDWNITDFLLLTENNSKFHLESVINITANLSSTKDLLSFLQVQMDNIRNSTPTMVMFGCDMDSIRQIFEMSTQFGLSPPELHWVLGDSQNVEELRTEGLPLGLIAHGKTTQSVFEYYVQDAMELVARAVATATMIQPELALLPSTMNCMDVKTTNLTSGQYLSRFLANTTFRGLSGSIKVKGSTIISSENNFFIWNLQHDPMGKPMWTRLGSWQGGRIVMDSGIWPEQAQRHKTHFQHPNKLHLRVVTLIEHPFVFTREVDDEGLCPAGQLCLDPMTNDSSMLDRLFSSLHSSNDTVPIKFKKCCYGYCIDLLEQLAEDMNFDFDLYIVGDGKYGAWKNGHWTGLVGDLLSGTANMAVTSFSINTARSQVIDFTSPFFSTSLGILVRTRDTAAPIGAFMWPLHWTMWLGIFVALHITAIFLTLYEWKSPFGMTPKGRNRNKVFSFSSALNVCYALLFGRTAAIKPPKCWTGRFLMNLWAIFCMFCLSTYTANLAAVMVGEKIYEELSGIHDPKLHHPSQGFRFGTVRESSAEDYVRQSFPEMHEYMRRYNVPATPDGVQYLKNDPEKLDAFIMDKALLDYEVSIDADCKLLTVGKPFAIEGYGIGLPPNSPLTSNISELISQYKSHGFMDVLHDKWYKVVPCGKRSFAVTETLQMGIKHFSGLFVLLCIGFGLSILTTIGEHIVHRLLLPRIKNKSKLQYWLHTSQRFHRALNTSFVEEKQPRSKTKRVEKSRWRRWTCKTEGDSELSLFPRSNLGPQQLMVWNTSNLSHDNQRKYIFNDEEGQNQLGTQAHQDIPLPQRRRELPASLTTNGKADSLNVTRSSVIQELSELEKQIQVIRQELQLAVSRKTELEEYQKTNRTCES
B2: GluN3A subunit: N145Q (protein)
parent chain: MRRLSLWWLLSRVCLLLPPPCALVLAGVPSSSSHPQPCQILKRIGHAVRVGAVHLQPWTTAPRAASRAQEGGRAGAQRDDPESGTWRPPAPSQGARWLGSALHGRGPPGSRKLGEGAGAETLWPRDALLFAVENLNRVEGLLPYNLSLEVVMAIEAGLGDLPLMPFSSPSSPWSSDPFSFLQSVCHTVVVQGVSALLAFPQSQGEMMELDLVSSVLHIPVLSIVRHEFPRESQNPLHLQLSLENSLSSDADVTVSILTMNNWYNFSLLLCQEDWNITDFLLLTENNSKFHLESVINITANLSSTKDLLSFLQVQMDNIRNSTPTMVMFGCDMDSIRQIFEMSTQFGLSPPELHWVLGDSQNVEELRTEGLPLGLIAHGKTTQSVFEYYVQDAMELVARAVATATMIQPELALLPSTMNCMDVKTTNLTSGQYLSRFLANTTFRGLSGSIKVKGSTIISSENNFFIWNLQHDPMGKPMWTRLGSWQGGRIVMDSGIWPEQAQRHKTHFQHPNKLHLRVVTLIEHPFVFTREVDDEGLCPAGQLCLDPMTNDSSMLDRLFSSLHSSNDTVPIKFKKCCYGYCIDLLEQLAEDMNFDFDLYIVGDGKYGAWKNGHWTGLVGDLLSGTANMAVTSFSINTARSQVIDFTSPFFSTSLGILVRTRDTAAPIGAFMWPLHWTMWLGIFVALHITAIFLTLYEWKSPFGMTPKGRNRNKVFSFSSALNVCYALLFGRTAAIKPPKCWTGRFLMNLWAIFCMFCLSTYTANLAAVMVGEKIYEELSGIHDPKLHHPSQGFRFGTVRESSAEDYVRQSFPEMHEYMRRYNVPATPDGVQYLKNDPEKLDAFIMDKALLDYEVSIDADCKLLTVGKPFAIEGYGIGLPPNSPLTSNISELISQYKSHGFMDVLHDKWYKVVPCGKRSFAVTETLQMGIKHFSGLFVLLCIGFGLSILTTIGEHIVHRLLLPRIKNKSKLQYWLHTSQRFHRALNTSFVEEKQPRSKTKRVEKSRWRRWTCKTEGDSELSLFPRSNLGPQQLMVWNTSNLSHDNQRKYIFNDEEGQNQLGTQAHQDIPLPQRRRELPASLTTNGKADSLNVTRSSVIQELSELEKQIQVIRQELQLAVSRKTELEEYQKTNRTCES
B3: GluN3A subunit: GluN3A-3/4N→Q (protein)
parent chain: MRRLSLWWLLSRVCLLLPPPCALVLAGVPSSSSHPQPCQILKRIGHAVRVGAVHLQPWTTAPRAASRAQEGGRAGAQRDDPESGTWRPPAPSQGARWLGSALHGRGPPGSRKLGEGAGAETLWPRDALLFAVENLNRVEGLLPYNLSLEVVMAIEAGLGDLPLMPFSSPSSPWSSDPFSFLQSVCHTVVVQGVSALLAFPQSQGEMMELDLVSSVLHIPVLSIVRHEFPRESQNPLHLQLSLENSLSSDADVTVSILTMNNWYNFSLLLCQEDWNITDFLLLTENNSKFHLESVINITANLSSTKDLLSFLQVQMDNIRNSTPTMVMFGCDMDSIRQIFEMSTQFGLSPPELHWVLGDSQNVEELRTEGLPLGLIAHGKTTQSVFEYYVQDAMELVARAVATATMIQPELALLPSTMNCMDVKTTNLTSGQYLSRFLANTTFRGLSGSIKVKGSTIISSENNFFIWNLQHDPMGKPMWTRLGSWQGGRIVMDSGIWPEQAQRHKTHFQHPNKLHLRVVTLIEHPFVFTREVDDEGLCPAGQLCLDPMTNDSSMLDRLFSSLHSSNDTVPIKFKKCCYGYCIDLLEQLAEDMNFDFDLYIVGDGKYGAWKNGHWTGLVGDLLSGTANMAVTSFSINTARSQVIDFTSPFFSTSLGILVRTRDTAAPIGAFMWPLHWTMWLGIFVALHITAIFLTLYEWKSPFGMTPKGRNRNKVFSFSSALNVCYALLFGRTAAIKPPKCWTGRFLMNLWAIFCMFCLSTYTANLAAVMVGEKIYEELSGIHDPKLHHPSQGFRFGTVRESSAEDYVRQSFPEMHEYMRRYNVPATPDGVQYLKNDPEKLDAFIMDKALLDYEVSIDADCKLLTVGKPFAIEGYGIGLPPNSPLTSNISELISQYKSHGFMDVLHDKWYKVVPCGKRSFAVTETLQMGIKHFSGLFVLLCIGFGLSILTTIGEHIVHRLLLPRIKNKSKLQYWLHTSQRFHRALNTSFVEEKQPRSKTKRVEKSRWRRWTCKTEGDSELSLFPRSNLGPQQLMVWNTSNLSHDNQRKYIFNDEEGQNQLGTQAHQDIPLPQRRRELPASLTTNGKADSLNVTRSSVIQELSELEKQIQVIRQELQLAVSRKTELEEYQKTNRTCES
B4: GluN3A subunit: GluN3A-4/4N→Q (protein)
parent chain: MRRLSLWWLLSRVCLLLPPPCALVLAGVPSSSSHPQPCQILKRIGHAVRVGAVHLQPWTTAPRAASRAQEGGRAGAQRDDPESGTWRPPAPSQGARWLGSALHGRGPPGSRKLGEGAGAETLWPRDALLFAVENLNRVEGLLPYNLSLEVVMAIEAGLGDLPLMPFSSPSSPWSSDPFSFLQSVCHTVVVQGVSALLAFPQSQGEMMELDLVSSVLHIPVLSIVRHEFPRESQNPLHLQLSLENSLSSDADVTVSILTMNNWYNFSLLLCQEDWNITDFLLLTENNSKFHLESVINITANLSSTKDLLSFLQVQMDNIRNSTPTMVMFGCDMDSIRQIFEMSTQFGLSPPELHWVLGDSQNVEELRTEGLPLGLIAHGKTTQSVFEYYVQDAMELVARAVATATMIQPELALLPSTMNCMDVKTTNLTSGQYLSRFLANTTFRGLSGSIKVKGSTIISSENNFFIWNLQHDPMGKPMWTRLGSWQGGRIVMDSGIWPEQAQRHKTHFQHPNKLHLRVVTLIEHPFVFTREVDDEGLCPAGQLCLDPMTNDSSMLDRLFSSLHSSNDTVPIKFKKCCYGYCIDLLEQLAEDMNFDFDLYIVGDGKYGAWKNGHWTGLVGDLLSGTANMAVTSFSINTARSQVIDFTSPFFSTSLGILVRTRDTAAPIGAFMWPLHWTMWLGIFVALHITAIFLTLYEWKSPFGMTPKGRNRNKVFSFSSALNVCYALLFGRTAAIKPPKCWTGRFLMNLWAIFCMFCLSTYTANLAAVMVGEKIYEELSGIHDPKLHHPSQGFRFGTVRESSAEDYVRQSFPEMHEYMRRYNVPATPDGVQYLKNDPEKLDAFIMDKALLDYEVSIDADCKLLTVGKPFAIEGYGIGLPPNSPLTSNISELISQYKSHGFMDVLHDKWYKVVPCGKRSFAVTETLQMGIKHFSGLFVLLCIGFGLSILTTIGEHIVHRLLLPRIKNKSKLQYWLHTSQRFHRALNTSFVEEKQPRSKTKRVEKSRWRRWTCKTEGDSELSLFPRSNLGPQQLMVWNTSNLSHDNQRKYIFNDEEGQNQLGTQAHQDIPLPQRRRELPASLTTNGKADSLNVTRSSVIQELSELEKQIQVIRQELQLAVSRKTELEEYQKTNRTCES
B5: GluN3A subunit: N264Q (protein)
parent chain: MRRLSLWWLLSRVCLLLPPPCALVLAGVPSSSSHPQPCQILKRIGHAVRVGAVHLQPWTTAPRAASRAQEGGRAGAQRDDPESGTWRPPAPSQGARWLGSALHGRGPPGSRKLGEGAGAETLWPRDALLFAVENLNRVEGLLPYNLSLEVVMAIEAGLGDLPLMPFSSPSSPWSSDPFSFLQSVCHTVVVQGVSALLAFPQSQGEMMELDLVSSVLHIPVLSIVRHEFPRESQNPLHLQLSLENSLSSDADVTVSILTMNNWYNFSLLLCQEDWNITDFLLLTENNSKFHLESVINITANLSSTKDLLSFLQVQMDNIRNSTPTMVMFGCDMDSIRQIFEMSTQFGLSPPELHWVLGDSQNVEELRTEGLPLGLIAHGKTTQSVFEYYVQDAMELVARAVATATMIQPELALLPSTMNCMDVKTTNLTSGQYLSRFLANTTFRGLSGSIKVKGSTIISSENNFFIWNLQHDPMGKPMWTRLGSWQGGRIVMDSGIWPEQAQRHKTHFQHPNKLHLRVVTLIEHPFVFTREVDDEGLCPAGQLCLDPMTNDSSMLDRLFSSLHSSNDTVPIKFKKCCYGYCIDLLEQLAEDMNFDFDLYIVGDGKYGAWKNGHWTGLVGDLLSGTANMAVTSFSINTARSQVIDFTSPFFSTSLGILVRTRDTAAPIGAFMWPLHWTMWLGIFVALHITAIFLTLYEWKSPFGMTPKGRNRNKVFSFSSALNVCYALLFGRTAAIKPPKCWTGRFLMNLWAIFCMFCLSTYTANLAAVMVGEKIYEELSGIHDPKLHHPSQGFRFGTVRESSAEDYVRQSFPEMHEYMRRYNVPATPDGVQYLKNDPEKLDAFIMDKALLDYEVSIDADCKLLTVGKPFAIEGYGIGLPPNSPLTSNISELISQYKSHGFMDVLHDKWYKVVPCGKRSFAVTETLQMGIKHFSGLFVLLCIGFGLSILTTIGEHIVHRLLLPRIKNKSKLQYWLHTSQRFHRALNTSFVEEKQPRSKTKRVEKSRWRRWTCKTEGDSELSLFPRSNLGPQQLMVWNTSNLSHDNQRKYIFNDEEGQNQLGTQAHQDIPLPQRRRELPASLTTNGKADSLNVTRSSVIQELSELEKQIQVIRQELQLAVSRKTELEEYQKTNRTCES

Test: surface/total immunofluorescence, COS-7, with GluN1-4a
Conditions: glycan lost; control: wild-type GluN1/GluN3A

localisation_or_trafficking, no change:
B1
B2
B3
B4
B5
